The test system of data set [1] is reversed passive Arthus reaction. The settings on record: in vivo; cited from earlier work.
In data set [2] the test system is post-ischemic myocardial inflammation and necrosis. Particulars: in vivo; cited from earlier work.
For data set [3] the following is noted: in vivo; cited from earlier work.
In data set [4] the test system is complement-mediated lysis of antibody coated SRBC. The data set is described as follows: Inhibition of complement-mediated hemolysis of antibody-sensitized SRBC in vitro. In kind it is cell-based, human. The protocol: (§1) SRBC presensitized with rabbit anti-SRBC antibody (Diamedix, Miami, Fla.) were mixed in a V-bottom microtiter wells (Costar, Cambridge, Mass.) with an appropriate dilution of the test plasma and an aliquot of diluted human serum as a complement source. After incubation, 37° C., 1 hour, the unlysed red cells were pelleted by centrifugation, the supernatant transferred to corresponding flat bottom microwells (Costar, Cambridge, Mass.), and absorbance at 415 nm measured. Inhibition of complement-mediated lysis of the antibody coated SRBC was measured as a reduction in the absorbance in the presence of test sample.
A range of dilutions of TP10HD or TP10HD glycoform spanning 7.8 to 1000 ng/ml was examined for each sample.

Data set [5] is described as follows: Pharmacokinetic studies 1, 4, 5, 7, 9: iv clearance of 125I-labelled TP10HD preparations in rats. In kind it is in vivo, Sprague-Dawley rats. The protocol: In Studies 1, 2, 4, 5, 7 and 9, Iodination was carried out by the chloramine-T procedure. Sodium phosphate buffer, 0.5M, pH 7.6, 50 μl, was added to 1 mCi of Na-^125 I (New England Nuclear, Boston, Mass.) as supplied. The sample of TP10HD, typically 100 μg in 100 μl (Study 5=69 μg; Study 7=34 μg; Study 9=91 μg), was added followed by 50 μl of a 15 mg/ml solution of freshly prepared chloramine-T. The reaction mixture was vigorously shaken for 60 seconds. Sodium metabisulfite (50 μl, 15 mg/ml) and sodium iodide (100 μl, 10 mg/ml) were successively pipetted into the reaction vial. The reaction mixture was passed onto a PD10 column (Pharmacia Fine Chemicals, Piscataway, N.J.), pre-equilibrated with phosphate buffered saline, pH 7.2-7.4, containing 0.1% bovine serum albumin (Sigma Chemical Company, St. Louis, Mo.). Ten 0.5 ml fractions were collected and 2 μl aliquots were counted directly and after combining with 100 μl of a 0.1% bovine serum albumin solution and 1 ml of 20% trichloroacetic acid. After incubation at 0° C. for 1 hour, the acid-precipitable protein associated radioactivity was collected by centrifugation for 10 minutes at 1000×g and quantitated by scintillation counting. Fractions containing >90% of the total radioactivity in the acid precipitate were pooled for further use.
Study 1: Radioiodinated TP10HD-CX was mixed with purified unlabeled TP10HD-CX to yield a dosing solution suitable for administering a 1 mg/kg total TP10HD dose containing 16-25×10^6 cpm of radiolabeled TP10HD-CX.
Study 4: Radioiodinated TP10HD-CC was mixed with purified unlabeled TP10HD-CC to yield a dosing solution suitable for administering a 1 mg/kg or a 3 mg/kg total TP10HD dose containing ~20×10^6 cpm.
Study 5: Radioiodinated TP10HD-CCW was mixed with purified unlabeled TP10HD-CCW to yield a dosing solution suitable for administering a 1 mg/kg total TP10HD dose containing ~20×10^6 cpm.
Study 7: Radiolabeled TP10HD-CCS was mixed with purified unlabeled TP10HD-CCS to yield a dosing solution suitable for administering a 1 mg/kg total TP10HD dose containing ~20×10^6 cpm.
Study 9: Radioiodinated TP10HD-CXD was mixed with purified unlabeled TP10HD-CXD to yield a dosing solution suitable for administering a 1 mg/kg total TP10HD dose containing ~20~10^6 cpm.
In Studies 1, 4, 5, 7 and 9, test material was injected intravenously (iv) into four Sprague-Dawley rats (2 male, 2 female). Blood samples were obtained from the retroorbital plexus at 1, 3, 5, 10, 20, 30, 45, and 60 minutes post injection, and the radioactivity determined. Additional post infusion blood samples were taken at 2, 3, and 4 hours postinjection (STUDY 4) and at 120 minutes (STUDY 5). The plasma fraction of the remaining blood sample was retained for further analysis.
Plasma samples were analyzed for residual test material by measuring:
(1) total residual radioactivity;
(2) percentage of radiolabeled material precipitated with TCA;
(3) residual acid precipitable radioactivity in the presence of SDS; and
(4) material immunologically identifiable in an enzyme immunoassay as TP10HD.
Radioisotope data was quantitated as total cpm/ml blood or plasma and as the percentage of a theoretical time zero value. Pharmacokinetic half-life was calculated from the radiometric data.
In Study 9, removal of N-linked oligosaccharide chains was performed by n-glycanase digestion, performed according to manufacturer's instructions (Genzyme Corporation, Boston, Mass.). Typically, 58 μg TP10HD-CX was incubated with 10.5 units of n-glycanase for 18 hours, 37° C., in 0.2M sodium phosphate, pH 8.6 buffer.
Precipitation with trichloroacetic acid was performed as follows: Plasma (20 μl) was precipitated by sequential addition of 450μl of 0.13M Tris HCl, 4% SDS, 10% glycerol, pH 6.8 buffer, followed by 30 μl of fetal bovine serum and 500μl of 20% trichloroacetic acid. […]

Data set [6] can be described thus: Isoelectric point by chromatofocusing (Mono P, pH 7.1 to 4.0). In kind it is physicochemical. The settings on record: for pI of minor isoforms: smaller quantities / minor component. The protocol: Chromatofocusing is a method of separating isoforms of proteins according to their isoelectric point, pI, using an ion exchange column and a pH gradient created with amphoteric buffers of different pH. In this study, analysis of the TP10HD preparations was performed using a pH gradient of 7.1 to 4.0. The chromatographic resin was Mono P, Hr5/5 (Pharmacia Fine Chemicals, Piscataway, N.J.); the starting buffer was 0.025M Bis/Tris titrated to pH 7.1 with saturated iminodiacetic acid; the eluant was polybuffer 7-4 (Pharmacia Fine Chemicals, Piscataway, N.J.) diluted 1:10 (v/v) with water and adjusted to pH 4.0 with HCl; cleaning buffer was 2M NaCl in water. The experimental conditions were chosen to yield a linear pH gradient of 7.1 to 4.0 units.

A short description of data set [7]: Pharmacokinetic study 3: iv TP10HD-CC in pigs, residual functional activity by hemolysis inhibition with pig complement. The settings on record: 1 mg/kg. In kind it is in vivo. The protocol:
Study 3: TP10HD-CC was administered as supplied to a final dose of 1 mg/kg.
In Study 3, test material was injected iv through a jugular vein cannula into piglets ranging in weight from 4.5 to 6.1 kg. Blood samples were taken via a previously implanted jugular vein cannula into syringes containing lithium heparin at a final concentration of 15 units/ml. A preinfusion sample, 10 ml, was taken at zero time and postinfusion samples, 1.0 ml, were taken at 5, 10, 15, 30, 45, 60, 120, 180, 240, 300, 360 minutes and 24 hours. Anticoagulated blood samples were centrifuged at ~3000 rpm, 4° C., 5 minutes and the platelet-poor plasma was aliquotted and stored at or below -70° C.
Plasma samples were analyzed for residual test material by an in vitro functional assay, as above, using pig rather than human complement. Pharmacokinetic half-life was calculated from the titer of the residual functional activity.
Prior to infusion with TP10HD-CC, plasma was collected from each pig to be used as a sample diluent and complement source for the hemolysis assay. Test samples were diluted a minimum of 1:50 with 0.1M Hepes, 0.15M NaCl, pH 7.4 buffer. For greater dilution, test samples were diluted with preinfusion plasma already diluted 1:50 in the same buffer, thereby maintaining the final plasma concentration at 1:50. At this dilution, the degree of hemolysis was equivalent to hemolysis with human complement, as described above. Other manipulations were as described above. Standard curves with known quantities of TP10HD can be used to calibrate the assay so that results can be expressed as μg/ml TP10HD remaining in the plasma versus time.
The pharmacokinetic parameters for clearance rate, compartment volume, rate constants and half-life were obtained by fitting the data for each pig to two and three compartment models. […] These phases represent 69% and 31% respectively of the given dose such that approximately one-third of the dose was cleared slowly.

A short description of data set [8]: Pharmacokinetic study 2: iv TP10HD-CX in rabbits, residual functional activity by hemolysis inhibition. In kind it is in vivo, Dutch rabbits. Particulars: for Peak (t = O) conc / Serum half-life / Total Clearance / Volume of Distribution: iv, 1 mg/kg. The protocol:
Study 2: Radioiodinated TP10HD-CX, ~5% w/w, was mixed with purified TP10HD-CX to yield a dosing solution containing 1 mg/ml TP10HD-CX in 0.1M Hepes, 0.15M NaCl, pH 7.4 buffer.
In Study 2, test material was injected iv into two groups of five male Dutch rabbits (approximately 1 kg) at a dose of 1 mg/kg. Blood samples, 2 ml, were taken from an ear artery immediately pre-dosing and at 5, 10, 20, 45, 60, 120, and 180 minutes, and mixed with heparin (final concentration 25 μg/ml). Radioactivity was determined in an aliquot by scintillation counting, and the plasma, obtained by centrifugation at 2000×g for 5 minutes, was stored at -40° C.
Plasma samples were analyzed for residual test material by an in vitro functional assay, inhibition of hemolysis of antibody coated sheep red blood cells (SRBC) by human complement. Pharmacokinetic half-life was calculated from the titer of the residual functional activity.
Rabbit plasma samples were heated at 56° C. for 1 hour in the presence of methylamine (12.5 mM) in order to amidate thioester groups and to inactivate endogenous complement components C3 and C4. […] Test samples were then diluted 1:50 with 0.1 Hepes, 0.15M NaCl, pH 7.4 buffer and assayed.
as §1, with “sample. Standard curves with known quantities of TP10HD can be used to calibrate the assay so that results can be expressed as mg/ml TP10HD remaining in the plasma versus time.” for “sample.”

The conditions of data set [9]: in vivo.
Experimental: Plasma pharmacokinetic half-lives and/or clearance rates of different glycoform preparations were determined.
[10] abbreviates: SRBC, human serum as complement source.

Where “and” joins values, the source holds several entries; their conditions need not be identical. Identical values can stand only once.

With “sCR1/pBSCR1c: soluble CR1 construct containing LHR-A, LHR-B, LHR-C, LHR-D, SCR29, SCR30 regions up to and including the first alanine residue of the transmembrane region”, in data set [1], the “activity in reversed passive Arthus reaction” value was “demonstrated in vivo activity”. Moreover, the “post-ischemic myocardial inflammation and necrosis” value in data set [2] is “suppressed post-ischemic myocardial inflammation and necrosis”. Moreover, the “survival rates following transplantation” value in [3] is recorded as “extended survival rates following transplantation”.

On to “TP10HD-CC: TP10HD produced by cells cultured in a fluidized bed perfusion bioreactor and purified by combination chromatography”, for which, in data set [4] (setting [10]), the “IH50 (concentration giving 50% inhibition of hemolysis)” value was “about 50±3 ng/ml”. The “potency relative to the strongly cationic glycoform (fold lower)” value in [4] (from IH50 of TP10HD-CX and TP10HD-CC) is “approximately 2 fold”. For the same substance, the “antihemolytic potency comparison, in words” value in data set [4] (in vitro) is “no basis for concluding that TP10HD-CC, TP10HD-CCW and TP10HD-CCS differ in their potency”. In data set [5] (1 mg/kg), this substance came in with a α phase half-life of 9.2 min and a β phase half-life of 181.1 min. In data set [5] (3 mg/kg), the α phase half-life is 9.8 min and the β phase half-life turned out to be 267.1 min. Besides, in data set [6] (chromatofocusing), the “pI of dominant isoforms” value was 5.1 and 4.8; the “pI of minor isoforms” value turned out to be 5.7. The “proportion of preparation with pI <4.9” value in data set [6] (peak integration) is on record as “approximately 40%”. Moreover, in [7], the “% of given dose represented by α-phase” value worked out at 69%, the “% of given dose represented by β-phase” value is reported as 31%, the “Peak (t = O) concentration” value was found to be 29.3 µg/mL and the “Total Clearance” value was 0.24 mL/min/kg. For the same substance, in data set [7], the “Volume of Distribution, α-phase” value came out at 36 mL/kg and the “Volume of Distribution, β-phase” value was 73 mL/kg. The “plasma level 24 hours after dosing” value in data set [7] (24 hours) is on record as “not distinguishable from control levels”. In data set [7] (mean of 8 animals), the “Serum half-life, α-phase” value amounted to 8.3 min; the “Serum half-life, β-phase” value was 360 min and 363 min. Besides, the “mean half-life, β-phase” value in data set [7] (two-compartment model) was found to be 6 h.

“TP10HD-CX: TP10HD produced by cells cultured in a hollow fiber bioreactor and purified by HPLC cation exchange chromatography” returned a α phase half-life in [8] (Study 2, iv, 1 mg/kg (Table 3 summary)) of 9 to 11 min. For the same substance, in data set [8] (Group 1), the “Peak (t = O) conc” value came to 16.5 ± 2.4 µg/mL, the Serum half-life was 9.1 ± 1.4 min, the “Total Clearance” value was determined as 5.8 ± 1.2 mL/min/kg and the “Volume of Distribution” value is 67.0 ± 9.0 mL/kg. Also, in data set [8] (Group 2), the “Peak (t = O) conc” value turned out to be 23.7 ± 1.7 µg/mL, the Serum half-life is reported as 11.1 ± 1.2 min, the “Total Clearance” value was determined as 2.9 ± 0.1 mL/min/kg and the “Volume of Distribution” value is 44.6 ± 3.7 mL/kg. The “IH50 (concentration giving 50% inhibition of hemolysis)” value in data set [4] (setting [10]) amounted to 20 ± 7 ng/mL. In data set [5] (1 mg/kg), this substance displayed a α phase half-life of 4.3 min and a β phase half-life of 167 min. Moreover, in data set [6] (chromatofocusing), the “average pI, in words” value is reported as “higher average pI than TP10HD-CC” and the “pI of minor isoforms” value was at most 5.0.

With “TP10HD-CXD: TP10HD-CX enzymatically deglycosylated with n-glycanase”, in [4] (comparison before and after deglycosylation), the “IH50 (concentration giving 50% inhibition of hemolysis)” value turned out to be 40 ng/mL. Besides, in data set [5] (1 mg/kg), the α phase half-life is on record as below 1 min and the β phase half-life was found to be 6.1 min. For the same substance, the “plasma half-life / clearance, in words” value in data set [9] is listed as “cleared rapidly”.

Values taken from patent US5456909A, “Glycoform fractions of recombinant soluble complement receptor 1 (sCR1) having extended half-lives in vivo” (T Cell Sciences, Inc., priority 1992, dated 1995).
